What all share (assay): cell-based or functional assay
In test [1] the target is human Kv1.3 voltage-gated potassium channel (human) (UniProt P22001).
The target in test [2] is human Kv1.3 channel (human) (UniProt P22001).
Test [3] has as its target human Kv1.1 channel (human) (UniProt Q09470).
Test [4] addresses human Kv1.3 channel (human) (UniProt P22001). This is another data set of the same source.

Read-outs that look alike come from different tables or passages of the source. Ends that are not written are not given here.

Sequence of human Kv1.3 channel (human) (P22001 whole entry): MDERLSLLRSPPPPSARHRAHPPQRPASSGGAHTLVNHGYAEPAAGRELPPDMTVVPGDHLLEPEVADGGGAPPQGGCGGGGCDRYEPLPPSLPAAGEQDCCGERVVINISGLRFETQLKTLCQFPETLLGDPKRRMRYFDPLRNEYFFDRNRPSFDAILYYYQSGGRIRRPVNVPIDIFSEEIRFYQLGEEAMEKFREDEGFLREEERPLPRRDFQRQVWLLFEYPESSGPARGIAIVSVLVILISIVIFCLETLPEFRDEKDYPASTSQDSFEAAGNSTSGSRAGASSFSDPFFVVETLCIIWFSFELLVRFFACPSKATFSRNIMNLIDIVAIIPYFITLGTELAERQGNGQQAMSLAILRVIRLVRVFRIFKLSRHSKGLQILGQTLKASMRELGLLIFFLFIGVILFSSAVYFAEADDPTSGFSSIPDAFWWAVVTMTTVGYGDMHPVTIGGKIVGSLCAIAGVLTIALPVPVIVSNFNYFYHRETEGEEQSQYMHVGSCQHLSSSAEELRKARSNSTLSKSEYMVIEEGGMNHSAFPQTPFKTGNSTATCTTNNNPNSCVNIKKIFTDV
Sequence of human Kv1.3 voltage-gated potassium channel (human) (P22001 whole entry): as above
Sequence of human Kv1.1 channel (human) (Q09470 whole entry): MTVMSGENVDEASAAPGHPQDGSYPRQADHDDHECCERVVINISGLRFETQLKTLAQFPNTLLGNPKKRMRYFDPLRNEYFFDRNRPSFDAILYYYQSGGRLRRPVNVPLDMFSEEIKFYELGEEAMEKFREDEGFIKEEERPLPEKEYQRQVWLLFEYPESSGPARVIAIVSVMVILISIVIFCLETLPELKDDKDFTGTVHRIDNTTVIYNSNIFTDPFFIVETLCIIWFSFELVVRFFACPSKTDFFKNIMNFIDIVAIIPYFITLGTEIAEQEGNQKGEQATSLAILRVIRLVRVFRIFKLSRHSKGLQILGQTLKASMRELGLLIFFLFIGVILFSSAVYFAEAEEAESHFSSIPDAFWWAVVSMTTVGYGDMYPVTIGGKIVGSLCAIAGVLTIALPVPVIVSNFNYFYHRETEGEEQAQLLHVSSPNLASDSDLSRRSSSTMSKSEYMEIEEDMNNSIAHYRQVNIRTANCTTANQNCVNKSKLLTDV

In test [1], 20k PEG-OSK1[Ala29, 1Nal34] (peptide) yielded a WB/IFNg (IC50, nM), human whole blood assay of 0.081 nM and a WB/IL-2 (IC50, nM), human whole blood assay of 0.049 nM. For 20k PEG-ShK (peptide), in that order: 0.065 nM and 0.046 nM.

In test [2], Fc-L5-ShK[2-35] (Fc fusion) registered an IC50 of block of the outward potassium current, whole cell patch clamp of 0.1 nM.

Regarding “Fc-L10-ShK[2-35] (CHO-derived) (Fc fusion)”, the IC50 of block of the outward potassium current, whole cell patch clamp in test [2] stood at 0.115 nM.

In test [1], GGGGS-Osk1 (peptide) came in with a WB/IFNg (IC50, nM), human whole blood assay of 2.2 nM and a WB/IL-2 (IC50, nM), human whole blood assay of 1.36 nM.

As to “OSK1 (native Orthochirus scrobiculosus toxin peptide)”, the Kv1.3 Selectivity (=Kv1.1/Kv.3 IC50) in test [1] stood at 5 fold. In test [1], OSK1 analogue E16K, K20D (peptide) registered a WB/IFNg (IC50, nM), human whole blood assay of 1.32 nM and a WB/IL-2 (IC50, nM), human whole blood assay of 1.58 nM.

For the molecule Synthetic OSK1 (peptide), in test [2], the hKv1.3: IC50 [pM], block of K+ current, whole cell patch clamp stood at 39 pM and the selectivity ratio hKv1.1/hKv1.3 (IC50 on hKv1.1 over IC50 on hKv1.3) amounted to 4 fold. For the same molecule, the hKv1.1: IC50 [pM], block of K+ current, whole cell patch clamp in test [3] was determined as 160 pM.

As for synthetic OSK1 toxin peptide, the IC50 of block of the outward potassium current, whole cell patch clamp in test [2] worked out at 0.039 nM.

B1: ShK[2-35] synthetic peptide analog (peptide)
peptide: SCIDTIPKSRCTAFQCKHSMKYRLSFCRKTCGTC
modifications: not fully specified; ends and bridges not checked
Consider B1, for which the IC50 of block of the outward potassium current, whole cell patch clamp in test [4] amounted to 0.049 nM.

The values above are taken from patent US20090318341A1.
